Results taken from patent publication US20250134988A1.

Target: CoV2_5P_FPKO1 (SARS-CoV-2) (UniProt P0DTC2)
Assay: ELISA

CR3022 (antibody)
EC50 (read off the curve): 0.01 µg/mL
